This passage reports reduction of binding against wild-type RCAN1, NFAT-luciferase reporter activity in HEK293 cells treated with ionomycin, inhibition against reporter alone and increase of binding with co-expressed wild-type NEDD8, against no NEDD8 results from paper PMC3485183.

The target in experiment [1] is HA-tagged RCAN1-3KR mutant (human). Put plainly: co-IP; HEK293 cells co-transfected with Flag-calcineurin and HA-tagged wild-type RCAN1 or RCAN1-3KR; IP with HA antibody, blot with Flag antibody.
Experiment [2] addresses Flag-calcineurin (UniProt Q08209).
The target in experiment [3] is HA-tagged wild-type calcineurin A (UniProt Q08209). Put plainly: co-IP; HEK293 cells co-transfected with HA-calcineurin and Myc-RCAN1, without or with T7-NEDD8, NEDD8-ΔGG, or after NEDD8 or control siRNA (60 nM); lysis in 1% NP40 buffer; IP with HA antibody, blot with Myc antibody.

Sequence of Myc-RCAN1 (P53805 whole entry): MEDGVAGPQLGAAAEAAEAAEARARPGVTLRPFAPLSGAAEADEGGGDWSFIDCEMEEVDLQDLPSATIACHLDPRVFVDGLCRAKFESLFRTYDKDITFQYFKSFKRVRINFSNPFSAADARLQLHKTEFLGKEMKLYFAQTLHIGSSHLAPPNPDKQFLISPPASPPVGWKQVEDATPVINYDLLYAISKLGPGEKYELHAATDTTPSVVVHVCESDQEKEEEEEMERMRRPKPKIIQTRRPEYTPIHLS

“Flag-calcineurin (from UniProt Q08209 1-521) (enzyme)”: in experiment [1], the reduction of binding against wild-type RCAN1 amounted to 40%.
In the case of “HA-tagged human wild-type RCAN1 (RCAN1-1S) (natural protein)”, in experiment [2], the NFAT-luciferase reporter activity in HEK293 cells treated with ionomycin, inhibition against reporter alone was greater than 60%.
Turning to Myc-RCAN1 (natural protein), the increase of binding with co-expressed wild-type NEDD8, against no NEDD8 in experiment [3] amounted to 30%.
